{"source": "patent US20080064048A1", "about": "“Methods for Selecting Proteins that are Readily Presented as Antigens on Dendritic Cells” (Medical and Biological Laboratories, Co., Ltd., priority 2004, published 2008)", "molecules": {"B1": {"name": "bOVA: biotin-labeled OVA antigen (protein)", "chain": "GSIGAASMEFCFDVFKELKVHHANENIFYCPIAIMSALAMVYLGAKDSTRTQINKVVRFDKLPGFGDSIEAQCGTSVNVHSSLRDILNQITKPNDVYSFSLASRLYAEERYPILPEYLQCVKELYRGGLEPINFQTAADQARELINSWVESQTNGIIRNVLQPSSVDSQTAMVLVNAIVFKGLWEKAFKDEDTQAMPFRVTEQESKPVQMMYQIGLFRVASMASEKMKILELPFASGTMSMLVLLPDEVSGLEQLESIINFEKLTEWTSSNVMEERKIKVYLPRMKMEEKYNLTSVLMAMGITDVFSSSANLSGISSAESLKISQAVHAAHAEINEAGREVVGSAEAGVDAASVSEEFRADHPFLFCIKHIATNAVLFFGRCVSP"}}, "key": {"PDI": {"biological_target": "T1, PDI (Mus musculus, UniProt P09103)", "T1 construct": "Three types of ER resident proteins; endogenous in cells; host or cells: DC2.4 mouse dendritic cell line", "T1 sequence (P09103 20-509)": "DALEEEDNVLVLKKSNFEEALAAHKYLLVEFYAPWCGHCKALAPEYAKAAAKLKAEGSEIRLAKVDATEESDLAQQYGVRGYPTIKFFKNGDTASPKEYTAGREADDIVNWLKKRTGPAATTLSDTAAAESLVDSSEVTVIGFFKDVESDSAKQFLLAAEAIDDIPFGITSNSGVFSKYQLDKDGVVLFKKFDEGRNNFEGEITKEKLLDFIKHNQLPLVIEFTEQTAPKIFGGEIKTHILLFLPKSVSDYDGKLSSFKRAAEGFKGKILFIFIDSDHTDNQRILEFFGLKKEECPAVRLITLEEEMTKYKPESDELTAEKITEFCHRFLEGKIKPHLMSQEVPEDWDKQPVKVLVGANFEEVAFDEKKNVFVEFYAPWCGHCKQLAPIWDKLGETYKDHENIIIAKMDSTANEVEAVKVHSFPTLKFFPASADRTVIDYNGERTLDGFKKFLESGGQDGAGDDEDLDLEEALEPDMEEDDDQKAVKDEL", "assay": "Co-immunoprecipitation of bOVA with anti-PDI", "format": "binding", "conditions": "DC2.4 cells incubated with bOVA", "method": "(§1) 2×10^7 DC2.4 or BMDC cells were cultured for four hours in a medium containing 10 μM MG-132 in the presence of bOVA at 250 μg mL^−1. Cells were lysed in 20 mM HEPES pH7.6 containing 1% digitonin and protease inhibitors to collect biotin-labeled samples. The samples were cleared of impurities in advance using protein G sepharose (Amersham Pharmacia Biotech), and after incubation with antibodies for precipitation (anti-Sec61β, anti Sec61α, anti-VCP, anti-BiP, anti-PDI, anti-calreticulin, anti-TAP1, and anti-TAP2), the immunoprecipitates were collected using protein G. When chicken anti-CHIP antibody was used, immunoprecipitates were collected using a rabbit anti-IgY column (a person, MBL). The precipitated samples were analyzed by SDS-PAGE and Western blotting."}, "OT-I CD8+ T cells": {"test_system": "OT-I CD8+ T cells", "assay": "Antigen presentation level: IL-2 production by OT-I CD8+ T cells (ELISA)", "format": "cell-based, mouse", "conditions": "DC2.4, dose-response OVA vs bOVA", "description": "Whether knock-down of cellular components involved in ERAD decreases the cross-presentation of exogenous OVA antigen was examined using a system for evaluating the level of antigen presentation, which uses naive CD8^+ T cells from OT-I mice and DC2.4 cells. The DC2.4 cells used as a model of dendritic cells are of the H-2 Kb mouse MHC class I haplotype. OT-I (H-2 Kb) mice are transgenic mice expressing a T cell receptor (TCRα and β) that recognizes an antigenic peptide (SIINFEKL) (SEQ ID NO: 15) derived from OVA presented on the H-2 Kb molecules. The CD8^+ cells of OT-I mice are activated when they recognize OVA peptides presented by BMDCs derived from H-2 Kb mice or by DC2.4 cells. When OVA or bOVA is incubated with and affixed onto DC2.4 cells and the cells are further incubated with naive CD8^+ T cells of OT-I mice, the amount of IL-2 produced by OT-I CD8^+ T cells serves as an index of T-cell stimulation as a result of OVA antigen presented by DC2.4 cells.\nParental or knocked-down DC2.4 cells were pre-incubated in a culture medium supplemented with 50 μg mL^−1 polymyxin B for 30 minutes in the presence or absence of lactacystin or MG-132, and incubated with OVA (250 μg mL^−1) or SIINFEKL (SEQ ID NO: 15) peptides (10 ng mL^−1) for six hours. The cells were washed, fixed with 1% paraformaldehyde, and aliquoted into microtiter plates (5×10^4 per well). 5×10^4 CD8^+ T cells purified from splenocytes of OT-1 mice using magnetic beads were added to each well and after a 24-hour incubation, the IL-2 secretion was measured by ELISA (BD Biosciences) in triplicate. […]"}, "CHIP": {"biological_target": "T2, CHIP (Mus musculus, UniProt Q9WUD1)", "T2 construct": "endogenous in cells; host or cells: DC2.4 mouse dendritic cell line", "T2 sequence (Q9WUD1 1-304)": "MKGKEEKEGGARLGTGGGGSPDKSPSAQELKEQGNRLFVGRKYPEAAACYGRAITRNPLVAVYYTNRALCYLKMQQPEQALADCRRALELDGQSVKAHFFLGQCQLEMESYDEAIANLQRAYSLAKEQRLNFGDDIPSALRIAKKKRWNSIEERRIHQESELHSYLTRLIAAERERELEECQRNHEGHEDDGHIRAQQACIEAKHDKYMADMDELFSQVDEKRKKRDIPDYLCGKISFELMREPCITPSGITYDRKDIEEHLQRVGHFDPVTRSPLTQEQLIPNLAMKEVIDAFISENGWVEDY", "assay": "Co-immunoprecipitation of bOVA with anti-CHIP", "format": "binding", "conditions": "DC2.4 cells incubated with bOVA", "method": "as §1"}, "Sec61α": {"biological_target": "T3, Sec61α (Mus musculus, UniProt P61620)", "T3 construct": "endogenous in cells; host or cells: DC2.4 mouse dendritic cell line", "T3 sequence (P61620 whole entry)": "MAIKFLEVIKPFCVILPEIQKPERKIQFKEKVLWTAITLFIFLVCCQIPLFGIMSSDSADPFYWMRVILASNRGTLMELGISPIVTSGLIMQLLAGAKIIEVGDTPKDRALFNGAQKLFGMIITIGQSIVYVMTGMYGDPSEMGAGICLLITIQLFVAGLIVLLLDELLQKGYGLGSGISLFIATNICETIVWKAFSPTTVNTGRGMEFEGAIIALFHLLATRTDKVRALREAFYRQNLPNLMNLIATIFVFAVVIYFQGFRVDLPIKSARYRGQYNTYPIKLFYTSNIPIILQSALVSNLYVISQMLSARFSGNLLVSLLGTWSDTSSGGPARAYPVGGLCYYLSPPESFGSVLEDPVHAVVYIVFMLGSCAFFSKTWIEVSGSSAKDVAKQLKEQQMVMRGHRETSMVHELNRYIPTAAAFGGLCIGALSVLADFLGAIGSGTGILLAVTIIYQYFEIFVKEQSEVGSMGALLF", "T3 sequence (Q9CQS8 2-96 partner limits assumed)": "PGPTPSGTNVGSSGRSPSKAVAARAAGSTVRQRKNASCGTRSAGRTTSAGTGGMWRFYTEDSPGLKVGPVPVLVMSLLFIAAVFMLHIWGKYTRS", "T3 sequence (P60060 whole entry partner)": "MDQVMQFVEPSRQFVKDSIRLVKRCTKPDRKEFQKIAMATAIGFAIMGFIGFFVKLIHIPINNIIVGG", "assay": "Co-immunoprecipitation of bOVA with anti-Sec61α", "format": "binding", "conditions": "DC2.4 cells incubated with bOVA", "method": "as §1"}, "VCP": {"biological_target": "T4, VCP (Mus musculus, UniProt Q01853)", "T4 construct": "endogenous in cells; host or cells: DC2.4 mouse dendritic cell line; bone marrow-derived dendritic cells", "T4 sequence (Q01853 2-806 limits assumed)": "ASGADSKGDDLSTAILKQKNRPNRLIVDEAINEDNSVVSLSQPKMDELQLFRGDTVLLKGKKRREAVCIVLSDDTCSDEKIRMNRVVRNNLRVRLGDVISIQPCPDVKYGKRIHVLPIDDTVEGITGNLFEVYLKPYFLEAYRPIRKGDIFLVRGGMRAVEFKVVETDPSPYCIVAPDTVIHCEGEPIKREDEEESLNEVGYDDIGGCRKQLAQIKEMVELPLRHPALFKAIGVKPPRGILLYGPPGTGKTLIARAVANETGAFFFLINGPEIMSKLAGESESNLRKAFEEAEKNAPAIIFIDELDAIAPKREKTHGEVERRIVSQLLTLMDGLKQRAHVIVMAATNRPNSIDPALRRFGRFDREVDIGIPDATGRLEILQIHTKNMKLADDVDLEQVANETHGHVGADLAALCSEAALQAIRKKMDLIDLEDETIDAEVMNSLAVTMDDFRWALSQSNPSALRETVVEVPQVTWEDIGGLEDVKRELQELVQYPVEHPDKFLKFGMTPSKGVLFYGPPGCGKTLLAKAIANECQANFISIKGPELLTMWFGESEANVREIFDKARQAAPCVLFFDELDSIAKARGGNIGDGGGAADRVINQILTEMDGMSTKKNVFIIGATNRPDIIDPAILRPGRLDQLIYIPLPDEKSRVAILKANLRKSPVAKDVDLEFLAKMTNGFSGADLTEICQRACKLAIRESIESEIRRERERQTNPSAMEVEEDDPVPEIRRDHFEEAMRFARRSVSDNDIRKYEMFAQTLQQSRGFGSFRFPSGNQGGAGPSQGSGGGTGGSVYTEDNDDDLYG", "assay": "Co-immunoprecipitation of bOVA with anti-VCP", "format": "binding", "method": "as §1"}}, "data": [{"molecule": "B1", "values": [{"measurement": "interaction with PDI (co-immunoprecipitation)", "setting": "PDI", "result": "interacts"}, {"measurement": "bOVA taken up by cells recovered as trypsin-resistant bOVA from the microsomal fraction", "setting": "DC2.4 cells", "result": "≥ 70", "unit": "%"}, {"measurement": "antigenicity for stimulation of CD8+ OT-I T cells (IL-2 production)", "setting": "OT-I CD8+ T cells", "result": "equally antigenic"}, {"measurement": "interaction with CHIP (co-immunoprecipitation)", "setting": "CHIP", "result": "interacts"}, {"measurement": "interaction with Sec61α (co-immunoprecipitation)", "setting": "Sec61α", "result": "interacts"}, {"measurement": "interaction with VCP (co-immunoprecipitation)", "setting": "VCP; BMDCs", "result": "interacts"}, {"measurement": "interaction with VCP (co-immunoprecipitation)", "setting": "VCP; DC2.4 cells incubated with bOVA", "result": "interacts"}]}]}
